This note sets out measurements from paper PMC3300031 (Nucleic Acids Research, 2011).

By stoichiometry N is commonly meant the number of molecules, sites or subunits per partner or assembly.

Where a chain is given by its changes, count along the chain named. Names and notes keep the numbering of the source.

Data set [1] concerns the molecule itself. Description: AUC + SEC.
Data set [2] deals with the molecule itself. The experiment in a line: SEC. In general terms: In gel filtration, larger molecules generally elute earlier.

B1: Pyrococcus furiosus NurA (Pf NurA), wild type (enzyme, UniProt Q8U1N8 1-451, looked up)
chain: MRLLSKQSIERITKILLDELENVRENEQIRNIINSWKPLPSPEKSSIYAVDGSRSVSRLSGTVIYFLSALAVGSGKQLRLSYANAIKSNYGTSDQIVRMQMETLENMLGYLAYRKLEGEKRAILMDGTLTGSLVRPPVYPEDIRSLNVMRALIGESDFENLLNEFLEKLRDHYRKVEEHLEKNGNYDSPILTDNVVEKLRKKYIDTKVIAYGSGKVKVKIPRKALGYSPRVIPIEVLESSRGKSVDELLQELDEEKVELYLGKDDIYDALHMTLSYIEYLYSIDKLLEVKNLAYIAKSFYTKTLARTLGVEIVDTALLDAVIRTLIGHEKEGYLEIEHAVVPPKWSFPDFLLSKFRNIEKLIDKGIHLAYVRFEQGDVIYMLQSTTNIEKILPLILHHKAGGYLRPLQLAHHGVKISYKEARHTLEALINALRNRDPALKIFVKYGRSPLE
In the case of B1, the “stoichiometry N” value in data set [1] turned out to be 2.

B2: Pf NurA R11A/I12E/S60Y dimeric interface mutant (enzyme, Pyrococcus furiosus)
chain: B1 chain with R11A, I12E, S60Y
Consider B2, for which the “stoichiometry N” value in data set [2] was approximately 2.

B3: Pf NurA ΔN26 dimeric interface mutant (first 26 residues deleted) (domain or fragment, Pyrococcus furiosus, UniProt Q8U1N8 27-451, looked up)
chain: EQIRNIINSWKPLPSPEKSSIYAVDGSRSVSRLSGTVIYFLSALAVGSGKQLRLSYANAIKSNYGTSDQIVRMQMETLENMLGYLAYRKLEGEKRAILMDGTLTGSLVRPPVYPEDIRSLNVMRALIGESDFENLLNEFLEKLRDHYRKVEEHLEKNGNYDSPILTDNVVEKLRKKYIDTKVIAYGSGKVKVKIPRKALGYSPRVIPIEVLESSRGKSVDELLQELDEEKVELYLGKDDIYDALHMTLSYIEYLYSIDKLLEVKNLAYIAKSFYTKTLARTLGVEIVDTALLDAVIRTLIGHEKEGYLEIEHAVVPPKWSFPDFLLSKFRNIEKLIDKGIHLAYVRFEQGDVIYMLQSTTNIEKILPLILHHKAGGYLRPLQLAHHGVKISYKEARHTLEALINALRNRDPALKIFVKYGRSPLE
Regarding B3, the “stoichiometry N” value in data set [2] stood at 4.
